Laboratory results reported in US9598687B2.

Molecular target: recombinant human prothrombin (Factor II) (human) (UniProt P00734)

Lys-C fragments identified by reverse phase UPLC and mass spectrometry (peptide mapping): 25 fragments
Substance: endoproteinase Lysyl endopeptidase (Lys-C) (tool reagent)
